Patent CN114456264A (INST OF MICROBIOLOGY OF CHINESE ACADEMY OF SCIENCES, dated 2022)

Biological target: SARS-CoV RBD蛋白 (SARS-CoV, UniProt P59594 306-527)
Assay: SPR, Biacore 8K, RBD on SA chip, antibody as analyte

B1: 抗体IMCAS-364 (antibody, V domains shown)
VH: QVQLQESGGGVVQPGRSLRLSCAASGFTFSRYGMHWVRQAPGKGLEWVAVIWYDGSNKYYADSVKGRFTISRDNSKNTLYLQMNSLRADDTAVYYCAKQEGTYCSGGSCYSGLDYWGQGTLVTVSS
VL: not shown
**Q.** For B1, which Kd is on record?
**A.** 8.17 nM
